From patent publication US20090170069, “Cell free methods for detecting protein-ligand binding” (The Arizona Board of Regents on behalf of the University of …, published 2009)
Positions count from the first letter of the chain named. Names may count otherwise.

What was measured:
[1] = target: CFluc-E2C (six-finger zinc finger E2C) (synthetic); assay: with HER2 122-140-Aart hairpin-guide and 1 nM HER2 transcript; conditions: tags: N-terminal CFluc(398-550) split luciferase fragment; hairpin with ssDNA guide tail
[2] = target: CFluc-E2C (six-finger zinc finger E2C) (synthetic); assay: with VEGF81-99-Aart hairpin-guide and 1 nM VEGF transcript; conditions: tags: N-terminal CFluc(398-550) split luciferase fragment; hairpin with ssDNA guide tail
[3] = target: Aart-NFluc (six-finger zinc finger Aart) (synthetic); assay: with E2C-HER2 100-118 hairpin-guide and 1 nM HER2 transcript; conditions: tags: N-terminal His tag, C-terminal NFluc(2-416) split luciferase fragment; hairpin with ssDNA guide tail
[4] = target: Aart-NFluc (six-finger zinc finger Aart) (synthetic); assay: competition; competes with E2C-1-Aart in split-luciferase assay with CFluc-E2C; IC50 only in figure; reference hairpin; conditions: tags: N-terminal His tag, C-terminal NFluc(2-416) split luciferase fragment
[5] = target: Aart-NFluc (six-finger zinc finger Aart) (synthetic); assay: competition; single A to T bp substitution in finger 3 triplet; conditions: tags: N-terminal His tag, C-terminal NFluc(2-416) split luciferase fragment; hairpin
[6] = target: Aart-NFluc (six-finger zinc finger Aart) (synthetic); assay: with Pum1-E2C hairpin-guide and 1 nM target ssRNA or ssDNA; G to T target mutation gives background; conditions: tags: N-terminal His tag, C-terminal NFluc(2-416) split luciferase fragment; hairpin with ssDNA guide tail
[7] = target: CFluc-E2C (six-finger zinc finger E2C) (synthetic); assay: with Pum2-Aart hairpin-guide and 1 nM target ssRNA or ssDNA; G to T target mutation gives background; conditions: tags: N-terminal CFluc(398-550) split luciferase fragment; hairpin with ssDNA guide tail
[8] = target: Aart-NFluc (six-finger zinc finger Aart) (synthetic); assay: with VEGF60-78-E2C hairpin-guide and 1 nM VEGF transcript; conditions: tags: N-terminal His tag, C-terminal NFluc(2-416) split luciferase fragment; hairpin with ssDNA guide tail

Sequence of CFluc-E2C (six-finger zinc finger E2C) (synthetic) (chain, as listed by the source): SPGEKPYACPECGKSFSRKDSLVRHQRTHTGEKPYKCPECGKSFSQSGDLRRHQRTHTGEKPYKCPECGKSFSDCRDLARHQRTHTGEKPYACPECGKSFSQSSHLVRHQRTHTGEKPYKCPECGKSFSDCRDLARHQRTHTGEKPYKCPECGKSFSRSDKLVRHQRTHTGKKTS
Sequence of Aart-NFluc (six-finger zinc finger Aart) (synthetic) (chain, as listed by the source): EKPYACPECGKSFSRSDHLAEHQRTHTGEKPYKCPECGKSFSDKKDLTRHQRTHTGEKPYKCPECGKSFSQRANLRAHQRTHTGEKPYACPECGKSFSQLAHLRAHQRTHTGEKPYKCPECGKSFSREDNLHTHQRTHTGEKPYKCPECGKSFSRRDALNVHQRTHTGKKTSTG

B1: E2C-HER2 100-118 hairpin-guide (dsDNA)
DNA: GAGGGGCCGGAGCCGCAGTGCGTCCTCGCACTGCGGCTCCGGCCCCTCAAAACGGCACAGACAGTGCGCGT
In the case of B1, the activity [1] is reported as 4.3 fold luminescence over hairpin-guides alone.

B2: VEGF60-78-E2C hairpin-guide (dsDNA)
DNA: GAGGGGCCGGAGCCGCAGTGCGTCCTCGCACTGCGGCTCCGGCCCCTCAAAAGAAGATGTCCACCAGGGTC
Binder B2 has an activity [2] of 39 fold luminescence.

B3: HER2 122-140-Aart hairpin-guide (dsDNA)
DNA: CCCTTGCAGCGGGCACAGCAAAACTCCGGGCTTTTCCCTACATGCTCCTGCATGTAGGGAAAAGCCCGGAG
In the case of B3, the activity [3] is reported as 4.3 fold luminescence over hairpin-guides alone.

B4: Aart competitor hairpin, consensus (dsDNA)
DNA: GCATGTAGGGAAAAGCCCGGCGTCCTCGCCGGGCTTTTCCCTACATGC
B4: binds [4].

B5: Aart competitor hairpin, consensus ATA (dsDNA)
DNA: B4 DNA with A13T, T36A
In the case of B5, the binding signal [5] is reported as 60 fold reduced vs consensus hairpin.

B6: Aart competitor hairpin, designed ATA (dsDNA)
DNA: GCATGTAGAGAATAACCAGGCGTCCTCGCCTGGTTATTCTCTACATGC
B6 was tested, and the binding signal [5] was 20 fold reduced vs designed hairpin.

B7: Pum2-Aart hairpin-guide (dsDNA)
DNA: GCCGCTATATCAAAAAACTCCGGGCTTTTCCCTACATGCTCCTGCATGTAGGGAAAAGCCCGGAG
For B7, the activity [6] was 4.5 fold luminescence over background.

B8: Pum1-E2C hairpin-guide (dsDNA)
DNA: GAGGGGCCGGAGCCGCAGTGCGTCCTCGCACTGCGGCTCCGGCCCCTCAAAACTATATACACCATG
With B8 the activity [7] was 4.5 fold luminescence over background.

B9: VEGF81-99-Aart hairpin-guide (dsDNA)
DNA: GATCTCATCAGGGTACTCCAAAACTCCGGGCTTTTCCCTACATGCTCCTGCATGTAGGGAAAAGCCCGGAG
B9 showed an activity [8] of 39 fold luminescence.
